# Measured values published in the RNAGym collection of RNA variant scans (doi:10.1073/pnas.2313332121).
# This sample holds only a part of the variants without activity.
# B1: TPR 5TU (parent)
# chain: GGAUCUUCUCGAUCUAACAAAAAAGACAAAUCUGCCACAAAGCUUGAGAGCAUCUUCGGAUGCAGAGGCGGCAGCCUUCGGUGGCGCGAUAGCGCCAACGUUCUCAACUAUGACACGCAAAACGCGUGCUCCGUUGAAUGGAGUUUAUCAUG
# Variants of: B1
# Assay: polymerase ribozyme fitness, log enrichment relative to wild type (log ratio); higher = more active; in vitro selection for triplet polymerase activity
# Procedure, shortened: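 In triplicate, a single round of in vitro selection was run on each mutant library, PCR-built and transcribed, covering one subunit of a heterodimeric triplet polymerase ribozyme. Frozen incubation at −7 °C followed annealing with a biotinylated primer, partner subunit and triplets, and extended constructs were then gel-excised, streptavidin-captured and taken through RT-PCR. Fitness is the logarithm of genotype enrichment over wild-type enrichment, from inverse-variance-weighted replicate averages of Illumina-sequenced inputs and outputs. […] only genotypes with ≥10 input reads and ≥1 read per output were kept.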
row,Variant,polymerase ribozyme fitness (log ratio)
1,C38U A73G C103A,-3.99
2,G58C C76A G83U,-2.66
3,C76A A107G U145C,≤ -4.2
4,G48C A64G G70U G94U U144G C149A,≤ -4.2
5,A49G G50U C87G U144G,≤ -4.2
6,U55A C85A C125A,-1.75
7,G83C C129G A137C U145C,≤ -4.2
8,U102G G141C,-3.94
9,G71C U77A U90C C103A U104G C131G,≤ -4.2
10,A20C A24G A40C C69A C75G C87U G88C U102C G124A G133C U135C A147C,≤ -4.2
11,A24G A49C C51A U78G G81C,≤ -4.2
12,U31G G81U C87G U104G G128C,≤ -4.2
13,A20U G48U U61G C85G,≤ -4.2
14,U15G U44G A73C G74U G80C C93U G141C,≤ -4.2
15,C27U G68U G74U U77C G80C U104C C116G,≤ -4.2
16,C54G A97C G124A,-0.735
17,A21C C43A G50C G74C C76A C87A A91G A119G,≤ -4.2
18,A40C U53A A110C,-4.04
19,C51A C54G G59C G84A C116G,-3.63
20,A52G G58C G68C,≤ -4.2
21,A60G G88C A106U U134A G140C G143C,≤ -4.2

row,Variant,polymerase ribozyme fitness (log ratio)
1,G48A U56A C85U A110G G141U,≤ -4.2
2,A17G C69G C85G A107C A122G,≤ -4.2
3,C51A C75U A98U,-3.28
4,A22U A26C A47C C57A G62A G86A A89U A106U C108G,≤ -4.2
5,U13G A24U A37G U134C,-4.14
6,A22C A47C A73U G83U G84A C95U C103G C116U G140C,≤ -4.2
7,A19C A24U C57G C75U G92U C118A,-0.536
8,A23U G42C G83A,≤ -4.2
9,G11U C69U U134C,-1.33
10,G50A A52C C72G A97C C99A U139C G143A,≤ -4.2
11,U31A G70A C76A C96U,≤ -4.2
12,A29C A52C G88U,≤ -4.2
13,A24C U53A G81C C95U G141A,≤ -4.2
14,G84U,-1.91
15,U7C G50C C51U C87U G152U,≤ -4.2
16,A26C A60U A107C A115G,≤ -4.2
17,A47C U53A C85G U139A,≤ -4.2
18,A21U A39C G58A G94C C125G U148G,≤ -4.2
19,G94A U101C G136C A137G U151A,≤ -4.2
20,U90C C96U,-3.69
21,A39G A41C,-1.44

row,Variant,polymerase ribozyme fitness (log ratio)
1,C51A G124A,-0.00389
2,A21G C132G,-3.9
3,A60G C85U U144G,0.543
4,C27U A49G,-2.49
5,A121G U144C,-0.191
6,A37G A52G C69A U144G,-4.11
7,G81C G84U,-2.44
8,A29U U104C,-4.14
9,C35U G42C C76A C93A G117C,≤ -4.2
10,C14U A22U A41U A120C,-3.1
11,A52G C57A A73U,-0.666
12,U102C U134G G136U A138U,≤ -4.2
13,G67U C85A C93U,≤ -4.2
14,A49U U55C U56A A73U C93U G117C,≤ -4.2
15,U55A U139A,-4.05
16,G50A C54U C85U G92U U148A,≤ -4.2
17,A21U A30G,-3.62
18,A52G G84A G94U G143A,≤ -4.2
19,U61G G62A C87U,-1.28
20,U9G A21U C35U U55A C108U C118U G128A G133A,≤ -4.2
21,C27G G141U,-4.04

row,Variant,polymerase ribozyme fitness (log ratio)
1,A60U C85U,-1.46
2,G68A C96U,-3.68
3,U61A C96A,-1.36
4,G34A G71C C105G G143U,≤ -4.2
5,A39C A49G,-3.48
6,C35A U53A G62A,≤ -4.2
7,C32G C87U,-3.63
8,C18U G65U A73G C85U G141C,≤ -4.2
9,A30G A60U C85A C95A C96A C125U A150C,≤ -4.2
10,G42C U55A G92C A115U A150U,≤ -4.2
11,U134A A142G U144G,-2.83
12,A23U A26U U33G A37C C72G C76A C95G U144C,≤ -4.2
13,U6A A60G C76A U144C,-0.452
14,U13A U15C A28G U33G C79A C118U U148G,≤ -4.2
15,C72U U77C C96A A110G,≤ -4.2
16,G46A G50C A52C C69A,≤ -4.2
17,G50C G84A,-3.25
18,A98U U134G,-2.65
19,A40U,0.097
20,A12C A64U G68C G84U A106C U145G,≤ -4.2
